Measurements: US10975360B2, “Process for the modification of alkanes, fatty acids and fatty alcohols” (priority 2016, dated 2021)

How the values were obtained:
[1] = Biotransformation of dodecanoic acid using CFE of E. coli, Tris-HCl buffer; type: biochemical; conditions: 5 mmol/L substrate, CFE of E. coli, Tris-HCl, 24 h
Method: (§1) Expression of genes in E. coli was performed by using ZYP-5052 auto-induction medium (Table 1) with in the case of the CYP 1 mM 5-aminolevulinic acid and 0.05 mM FeCl3 added. The CYP505E3 culture was cultivated using baffled flasks and incubated at 20° C. and 180 rpm for 24 h, while the GDH, and HLADH expressing cultures were all cultivated at 25° C. and 200 rpm for 24 h. Cultures were harvested through centrifugation (6 000×g, 10 min) and 1 g (wet weight) resuspended in 2 ml, 5 ml or 10 ml Tris-HCl, Phosphate or MOPS buffer, as indicated, (pH 8, 200 mM) containing 100 mM of glucose and glycerol. CFEs were obtained by a single passage of the suspended cells through a One Shot Cell Disrupter (Constant Systems) at 207 MPa. The soluble fraction was separated from unbroken cells by centrifugation (20 000×g, 20 min).
(§2) The biotransformation reaction mixture (BRM) consisted of CYP and GDH CFE suspensions prepared from cells in Tris-HCl buffers (1 g wet weight in 2 ml buffer) mixed in a 1:1 ratio with 0.1 mM NADPH added. Dodecanoic acid, tetradecanoic acid, hexadecanoic acid, 1-tetradecanol and 1-hexadecanol (20 μl of a 255 mM stock solution in DMSO) were added to 40 ml amber glass vials containing 1 ml BRM to give final substrate concentrations of 5 mmol·LBRM^−1. These vials were placed on an orbital shaker at 20° C., 200 rpm, oscillation amplitude 26 mm. Vials were removed after 24 h for extraction. Biotransformations were stopped by adding 170 ul of 0.5M HCl, extracted with 2×500 μl EtOAc and subjected to GC-MS analysis. A sample of δ-dodecalactone in ethyl acetate (0.1 mM) was also methylated with TMSH and subjected to GC-MS analysis.

[2] = type: biochemical
Method: To convert 1,5-dodecanediol to δ-dodecalactone 170 μL of an ethyl acetate extract containing 150 mM dodecanol and 5.5 mM 1,5-dodecanediol was placed in a 40 mL vial and the ethyl acetate evaporated by incubating the vial at 100° C. for 5 min. After evaporation of the ethyl acetate the dodecanol/dodecanediol mixture was resuspended in 1 mL of an HLADH expressing culture of E. coli permeabilized with Triton X100 (1% v/v was added and the cell suspension incubated at 37° C. for 10 min). This reaction mixture containing 1 mM of 1,5-dodecanediol and 25 mM of dodecanol was incubated at 30° C. and 180 rpm for 24 h. It was then extracted with ethyl acetate (2×0.5 mL) containing 2 mM undecanol as internal standard and analysed on a VF5 column using a GC with FID detector for quantification and a GC-MS with a Chiraldex G-TA column (30 m×0.25 mm ID) to determine enantioselectivity. The ethyl acetate extract contained 0.2 mM 1,5-dodecanediol and 0.65 mM δ-dodecalactone (R:S ratio 84:16, ee 67%) while the δ-dodecalactone produced from dodecanoic acid in previous experiments using CYP505E3 was an almost racemic mixture (R:S ratio 55:45, ee 10%) (FIG. 12).

[3] = type: cell-based, P. pastoris
Method: Precultures of P. pastoris transformants were prepared in buffered complex glycerol media (BMGY). BMGY contained: 10 g/l yeast extract, 20 g/l peptone, 3.4 g/l yeast nitrogen base, 10 g/l ammonium sulfate, 100 mM potassium phosphate (pH 6), 0.4 mg/l biotin and 1% (v/v) glycerol. Erlenmeyer flasks (500 ml) containing 50 ml BMGY media were inoculated with single colonies of 24 h old YPD-agar cultures of P. pastoris KM71 mut^s3/CYP505E3 and incubated at 30° C. and 225 rpm for 24 h. The cultures were harvested using pre-weighed centrifuge tubes at 3000 g for 5 min and stored on ice until further use.
The main cultures for expression were prepared in buffered complex methanol media (BMMY) containing 10 g/l yeast extract, 20 g/l peptone, 3.4 g/l yeast nitrogen base, 10 g/l ammonium sulfate, 100 mM potassium phosphate (pH 6), 0.4 mg/l biotin and 0.5 or 1% (v/v) methanol. Harvested cells from precultures were resuspended in BMMY media to final concentration of 1 g WC per 40 ml (appx. 25 g/l). The resuspended cultures (100 ml) were transferred to 500 ml Erlenmeyer flasks and incubated at 25° C. and 225 rpm for 24 h. The cultures were then harvested at 3000 g for 5 min using pre-weighed centrifuge tubes.
Different transformants of Pichia pastoris KM71 harbouring the CYP505 genes for SEQ ID Nos 1 to 7 and 9 to 12 were grown and harvested as described above. The harvested cells were resuspended to give 1 g wet cell weight in 40 ml MOPS buffer (200 mM, 100 mM glucose, 100 mM glycerol, pH 8) and 1 ml aliquots of these cell suspensions were transferred to 40 ml amber vials. Dodecane, 1-dodecanol and 1-tetradecanol were added neat to these cell suspensions to give final concentrations of 200 mM in the case of the alcohols and 1 M in the case of dodecane while in the case of dodecanoic acid 20 μl of a 500 mM stock solution (in DMSO) was added to give a final concentration of 10 mM. Transformants harbouring the CYP505 genes for SEQ ID Nos 1 to 4 were tested for the biotransformation of 1-dodecanol, 1-tetradecanol, dodecanoic acid, tetradecanoic acid and dodecane, while those harbouring the CYP505 genes for SEQ ID Nos 5 to 7 and 9 to 12 were only tested for the biotransformation of 1-dodecanol and dodecanoic acid. The biotransformations were incubated at 25° C. and 225 rpm for 24 h. Extractions were performed using ethyl acetate (500 μl×2). The extracts were analyzed using GC/MS.

[4] = Biotransformation of C12 fatty acid using CFE of E. coli expressing CYP505E3 in different buffers; type: biochemical
Method: as §1
The biotransformation reaction mixture (BRM) consisted of CYP and GDH CFE suspensions prepared from cells in Tris-HCl, phosphate and MOPS buffers (1 g wet weight in 5 ml buffer) mixed in a 1:1 ratio with 0.1 mM NADPH added. The final CYP concentrations were 1.1, 1.3 and 1.5 μM in respectively the Tris-HCl, phosphate and MOPS buffers. Dodecanoic acid (20 μl of 255 or 510 mM fatty acid stock solution in DMSO) was added to 40 ml amber glass vials containing 1 ml BRM to give final substrate concentrations of 5 and 10 mmol·LBRM^−1. […]

[5] = Biotransformation of tetradecanoic acid using CFE of E. coli, Tris-HCl buffer; type: biochemical; conditions: 5 mmol/L substrate, CFE of E. coli, Tris-HCl, 24 h
Method: as §1, §2

B1: CYP505E3: self-sufficient cytochrome P450 monooxygenase from Aspergillus terreus, SEQ ID No 1 (protein, listed as Aspergillus terreus)
chain: MIKETEQIPGPRPLPVVGNLFDMDLEHGLECLIRLADDFGPLFQITINGEKQIFATSQALVDELCDESRFHKAVMGGLEKLRMLASDGLFTAYHGERGWGIAHRILVPAFGPLRIRNMFEEMNDVAQQLCLKWARQGSSTSINITDDFTRLTLDTIALCTMNFRLNSFYNNETMHPFVKSMLYVLRESDIQSMLPGIANCIRVKARSRMSKHIQLMRNMARGIIQERRDQAEPVDDLLNTLLNGRDPVTGEGMSDDLIINNVITFLIAGHETTSGLLSFTFYYLLQNPHILERAQNEVDEVTGGERITVQHLGRLTYIDAILKESLRLMPTAPAFTVTPKKPEVLGGAWAIDAGQAVNVLLPVCLRDRSVFGPDADEFRPERMLEENFSKLPPNSWKPFGNGERSCIGRAFAWQEAQLVVAMVLQTFDLVPDDPSYKLRIKETLTIKPDGFRVRATLRRGQSATGLSQGSMSASGATSSVASPGPPAATGAQSNPAGGQRISFFYGSNSGTCKALAHRLASSLMGRGFTEQKLAALDTVVGNLPTDQPVIIVTTSYDGRPTDDAEEFVRWLESKRPVLQGVSYAVFGCGHHDWAKTFYRIPILIDDLMHKAGATRLTALGTANAAVSDLFSDLELWEETNLLPALREAFPPSNSSDVESSEPHQLQICVSKPRRVDMHRGLVEAKVTAVRTLTSPDSPEKRHVEFHVQGDTTWRPGDHVNILPVNPLSTVSRVLAYFQLAPDHSITVNSFNTQGLPSATPVSATELFSSFVELSQPATRKNLKALAMAAESKTDEQELIRLHDSYDALVRDKRVSVLDILERFPSISLPIGIFISMLPPLRLRTYSLSMAPSFKPSHGSLTFSVINEPAWSGNGQYLGVGSNYLASLTPGSLLYLSPRPAKDAFHLPADQFNTPIIMICAGSGLAPFMGFIQERMTWLKQGRPLAKGLLFFGCRGPHLDDLYYEELSEFEDAGVVEVHRAYSRAPDDVRAKGCRHVQHRLVTEAEAVRDHWGRNAIVYVCGSSNMARGVQTVLEEILGTLPPERYVAEIF
products identified from dodecanoic acid (GC-MS, methylated samples) [1]: δ-dodecalactone and the methyl ester of 5-hydroxy dodecanoic acid | δ-dodecalactone R:S ratio [2]: 55:45 | δ-dodecalactone ee [2]: 10% | products produced from tetradecanoic acid (GC-MS) [3]: only 7-hydroxy tetradecanoic acid | conversion of substrate ([4]; 5 mM dodecanoic acid, within 24 h, all buffers): almost completely converted | δ-dodecalactone and 5-OH 12FAME as share of the total products ([4]; dodecanoic acid, CFE, Tris-HCl, phosphate or MOPS buffer pH 8): 30-35% | products identified from tetradecanoic acid (GC-MS, methylated samples) [5]: 7-hydroxy tetradecanoic acid
